Results published in patent publication US20200270358A1 (BEIJING GEFUCURE BIOTECHNOLOGY, published 2020).

Target: T1, CD20 antigen on the surface of Daudi and Raji B lymphoma cells (human, UniProt P11836 1-297)
T1 sequence (looked up): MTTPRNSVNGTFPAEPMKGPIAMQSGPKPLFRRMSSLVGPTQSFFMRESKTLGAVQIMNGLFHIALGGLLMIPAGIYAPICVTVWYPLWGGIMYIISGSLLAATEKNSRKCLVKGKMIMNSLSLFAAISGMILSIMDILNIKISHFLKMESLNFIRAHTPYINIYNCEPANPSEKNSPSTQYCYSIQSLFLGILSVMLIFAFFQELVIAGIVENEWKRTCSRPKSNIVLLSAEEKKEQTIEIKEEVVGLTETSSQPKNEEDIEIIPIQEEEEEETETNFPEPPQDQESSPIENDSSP
Test: cell-based or functional assay

- EC50 (read off the curve): ADCC, percentage of cell lysis (LDH release), NK92/CD16a (158 V/V) effector cells, CD20-bearing B lymphoma target cells: ~0.5 ng/mL
B1: recombinant afucosylated anti-human CD20 monoclonal antibody prepared in Example 2 (expressed in the milk of a transgenic cow) (antibody, human IgG1, kappa)
heavy: not shown
light: QIVLSQSPAILSASPGEKVTMTCRASSSVSYIHWFQQKPGSSPKPWIYATSNLASGVPVRFSGSGSGTSYSLTISRVEAEDAATYYCQQWTSNPPTFGGGTKLEIKRTVAAPSVFIFPPSDEQLKSGTASVVCLLNNFYPREAKVQWKVDNALQSGNSQESVTEQDSKDSTYSLSSTLTLSKADYEKHKVYACEVTHQGLSSPVTKSFNRGEC
modifications: N-linked sugar chain at Asn-320, mainly afucosylated glycoform (80% to 100%), of which the G2 glycoform is 30% to 100%
